Experiment [1] deals with T1, human folate receptor alpha (hFRα), recombinant protein (human, UniProt P15328 25-233).
T1 construct: Bought recombinant proteins (His-tagged, or biotinylated via Avi-tag, e.g. AcroBiosystems FO1-H82E2, F01-H52H1); also called hFOLR1; huFOLR1
In words: BLI. An outline of the steps: (§1)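 Biotinylated human and mouse folate receptor alpha were immobilised on streptavidin biosensors, and off-rates were read by biolayer interferometry, with a 1:1 binding model applied in the calculation. Each variant's koff is expressed as a signed fold change relative to its wild-type VHH, positive as wild-type over variant for a better off-rate and negative as variant over wild-type for a worse one.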
Background: Biolayer interferometry detects binding as a change in optical thickness at a sensor tip.

Experiment [2] deals with T2, mouse folate receptor alpha (mFRα), recombinant protein (mouse, UniProt P35846 25-232).
T2 construct: Bought recombinant proteins (e.g. biotinylated, Acro Biosystems FO1-M82E9); also called mFOLR1; Ms FOLR1
Description: BLI. An outline of the steps:
as §1

Experiment [3] addresses T3, human folate receptor alpha expressed on cells (transfected HEK293T, HeLa, MCF7, MDA-MB-231) (human, UniProt P15328 25-234).
T3 construct: HEK293T transiently transfected with human FOLR1; also called native human FRα; cell-expressed human FOLR1
Description: flow cytometry on HeLa cells, anti-Flag detection. The protocol:
EC₅₀ values are found in Table 9. Detection of VHH cell binding was done through anti-Flag M2 mIgG1 followed by anti-mFc-PE in flow cytometry. Results are depicted as mean fluorescence intensity ^{∘}MFI).
(§2) Off-rates of purified variants were determined to human, mouse, and cynomolgus FRα in BLI. In addition, binding of the affinity optimised variants to cell-expressed human FRα on HeLa cells was determined by flow cytometry ^{∘}FIG. 10 B).
On the technique in general: A flow cytometer gives signals particle by particle.

The target in experiment [4] is T1, human folate receptor alpha (hFRα), …. Description: BLI, Avi-biotinylated FRα. The procedure:
(§3) Purified VHHs ^{∘}100 nM) were analysed for binding to avi-tagged biotinylated FRα protein captured on streptavidin-biosensors via BLI.
as §2

Experiment [5] concerns the target T2, mouse folate receptor alpha (mFRα), …. Description: BLI, Avi-biotinylated FRα. The procedure:
as §3, §2

The target in experiment [6] is T1, human folate receptor alpha (hFRα), …. Description: BLI, purified VHH. In outline: (§4)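 Off-rates to folate receptor alpha from human, mouse and cynomolgus were measured by biolayer interferometry. The VHH proteins tested were made with a flag3-His6 tag in TG-1 E. coli at 0.5 L scale and isolated from the periplasm on Ni Sepharose FastFlow columns.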
Experiment [7] concerns the target T4, cynomolgus folate receptor alpha, recombinant (cynomolgus, UniProt A0A2K5U044 25-233).
T4 construct: also called cyFOLR1; cynomolgus FRα
In words: BLI, purified VHH. In outline:
as §4

Experiment [8] has as its target T2, mouse folate receptor alpha (mFRα), …. Description: BLI, purified VHH. In outline:
as §4

Several values for one entry are separate records, joined by “and”; a condition that tells them apart may be missing. Equal entries are not always repeated.

T3 sequence (P15328 25-234 limits assumed): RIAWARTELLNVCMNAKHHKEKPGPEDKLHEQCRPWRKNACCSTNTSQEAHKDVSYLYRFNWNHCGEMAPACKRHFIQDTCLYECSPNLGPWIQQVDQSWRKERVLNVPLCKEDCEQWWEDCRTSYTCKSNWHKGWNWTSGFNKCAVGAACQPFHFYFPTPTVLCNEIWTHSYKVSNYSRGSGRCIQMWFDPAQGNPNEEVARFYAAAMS
T2 sequence (P35846 25-232 limits assumed): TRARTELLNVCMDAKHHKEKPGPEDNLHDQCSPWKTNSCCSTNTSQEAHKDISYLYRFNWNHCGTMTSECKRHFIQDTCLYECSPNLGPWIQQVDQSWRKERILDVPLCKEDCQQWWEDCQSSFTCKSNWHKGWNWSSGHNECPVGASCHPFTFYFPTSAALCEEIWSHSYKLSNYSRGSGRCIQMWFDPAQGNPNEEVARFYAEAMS
T4 sequence (A0A2K5U044 entry or part of it): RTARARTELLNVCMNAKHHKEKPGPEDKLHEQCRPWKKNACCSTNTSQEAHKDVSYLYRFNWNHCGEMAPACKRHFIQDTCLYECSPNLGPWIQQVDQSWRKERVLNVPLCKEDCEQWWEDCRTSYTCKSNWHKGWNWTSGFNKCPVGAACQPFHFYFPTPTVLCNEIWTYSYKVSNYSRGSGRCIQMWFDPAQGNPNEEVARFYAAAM
T1 sequence (P15328 25-233 limits assumed): as the sequence (A0A2K5U044 entry or part of it) above, with T2I, R4W, K37R, P146A, Y171H counted along it

B1: P01500012: P0150001 with M32I (VHH)
VHH: EVQLVESGGGLVQPGGSLRLSCAASGSGFSGIIMGWYRQAPGKQRELVATVTSHGTTNYADSVKGRFTISRDNAKNTVYLQMNSLRPEDTAVYYCNAHFPGIYWGKGTLVTVSS
notes: Entry carries a His6 tag
Broadly, the koff is the first-order rate constant of dissociation. Consider B1, for which, in experiment [1], the off-rate constant (koff) was 0.0712 s⁻¹ and the “nm (Fold wt)” value was determined as 5.4. In experiment [2], the koff turned out to be 0.00762 s⁻¹ and the “nm (Fold wt)” value worked out at 4.7.

B2: P01500056: P01500001(I33L, D72P, N73G)-FLAG3-HIS6 (VHH)
VHH: EVQLVESGGGLVQPGGSLRLSCAASGSGFSGMLMGWYRQAPGKQRELVATVTSHGTTNYADSVKGRFTISRPGAKNTVYLQMNSLRPEDTAVYYCNAHFPGIYWGKGTLVTVSS
notes: also called P0150056
As a reminder, the EC50 is the concentration giving half of the maximal effect. Higher therefore signals a less potent agent. For B2, the EC50 in experiment [3] was 2.52 nM. Besides, in experiment [3], the MFI top stood at 55300 MFI. The koff was found to be 0.000295 s⁻¹ in experiment [4]; 3.38e-05 s⁻¹ in experiment [5]; 0.000265 s⁻¹ in experiment [6]; 0.00034 s⁻¹ in experiment [7]; 3.38e-05 s⁻¹ in experiment [8].

B3: P01500055: P01500001(V51R, D72E, N73G)-FLAG3-HIS6 (VHH)
VHH: EVQLVESGGGLVQPGGSLRLSCAASGSGFSGMIMGWYRQAPGKQRELVATRTSHGTTNYADSVKGRFTISREGAKNTVYLQMNSLRPEDTAVYYCNAHFPGIYWGKGTLVTVSS
notes: also called P0150055
Take B3: the response in experiment [3] was half-maximal at 3.77 nM (EC50). This molecule displayed an MFI top in experiment [3] of 59000 MFI. Besides, the koff in experiment [4] came out at 0.000382 s⁻¹; in experiment [5], 2.4e-05 s⁻¹; in experiment [6], 0.000382 s⁻¹; in experiment [7], 4.24e-05 s⁻¹; in experiment [8], 2.4e-05 s⁻¹.

B4: P01500054: P01500001(I33L, N73P)-FLAG3-HIS6 (VHH)
VHH: EVQLVESGGGLVQPGGSLRLSCAASGSGFSGMLMGWYRQAPGKQRELVATVTSHGTTNYADSVKGRFTISRDPAKNTVYLQMNSLRPEDTAVYYCNAHFPGIYWGKGTLVTVSS
notes: also called P0150054
On to B4, for which, in experiment [3], the EC50 stood at 5.18 nM. In addition, in experiment [3], the MFI top was determined as 55800 MFI. Moreover, the koff in experiment [4] was 0.000937 s⁻¹; in experiment [5], 0.000147 s⁻¹; in experiment [6], 0.000968 s⁻¹; in experiment [7], 0.000147 s⁻¹; in experiment [8] it was 0.000147 s⁻¹.

B5: P01500014: P0150001 with M32P (VHH)
VHH: EVQLVESGGGLVQPGGSLRLSCAASGSGFSGPIMGWYRQAPGKQRELVATVTSHGTTNYADSVKGRFTISRDNAKNTVYLQMNSLRPEDTAVYYCNAHFPGIYWGKGTLVTVSS
notes: Entry carries a His6 tag
In the case of B5, in experiment [1], the koff is 0.0255 s⁻¹ and the “nm (Fold wt)” value was 2. Moreover, in experiment [2], the koff amounted to 0.00241 s⁻¹ and the “nm (Fold wt)” value was 1.5.

B6: P01500057: P01500001(G26E, G28P, D72E, N73G)-FLAG3-HIS6 (VHH)
VHH: EVQLVESGGGLVQPGGSLRLSCAASESPFSGMIMGWYRQAPGKQRELVATVTSHGTTNYADSVKGRFTISREGAKNTVYLQMNSLRPEDTAVYYCNAHFPGIYWGKGTLVTVSS
notes: also called P0150057
In experiment [3], B6 gave an EC50 of 2.56 nM. The MFI top in experiment [3] stood at 53800 MFI. Further, the koff in experiment [4] was 0.000316 s⁻¹; in experiment [5], 2.11e-05 s⁻¹; in experiment [6], 0.000307 s⁻¹; in experiment [7] it was 0.000234 s⁻¹; in experiment [8], 2.11e-05 s⁻¹.

B7: P01500084: P0150001 with A24V, S27T, M32I, N76D (VHH)
VHH: EVQLVESGGGLVQPGGSLRLSCAVSGTGFSGIIMGWYRQAPGKQRELVATVTSHGTTNYADSVKGRFTISRDNAKDTVYLQMNSLRPEDTAVYYCNAHFPGIYWGKGTLVTVSS
B7: in experiment [1], the koff stood at 0.0336 s⁻¹ and the “nm (Fold wt)” value worked out at 2.5. Also, in experiment [2], the koff stood at 0.00649 s⁻¹ and the “nm (Fold wt)” value was determined as 4.

B8: P01500053: P01500001(S30I, I33L, N73P)-FLAG3-HIS6 (VHH)
VHH: EVQLVESGGGLVQPGGSLRLSCAASGSGFIGMLMGWYRQAPGKQRELVATVTSHGTTNYADSVKGRFTISRDPAKNTVYLQMNSLRPEDTAVYYCNAHFPGIYWGKGTLVTVSS
notes: also called P0150053
As to B8, the EC50 in experiment [3] came out at 2.63 nM. The same molecule gave an MFI top in experiment [3] of 51200 MFI. The koff in experiment [4] was 0.000922 s⁻¹ and 0.00105 s⁻¹; in experiment [5] it was 0.000167 s⁻¹ and 0.000214 s⁻¹; in experiment [6], 0.000943 s⁻¹; in experiment [7], 0.000167 s⁻¹; in experiment [8] it was 0.000191 s⁻¹.
